The supplement of paper PMC7877785
± gives the uncertainty stated by the source.

Assay: self-splicing fitness, log relative to wild type (ln ratio); higher = more splicing; Tetrahymena group I intron in knt gene, E. coli kanamycin selection, DiMSum; sequences stand for … in CUCUCU…GGAGGGAAAAGUUAUCAGGCAUGCACCUGGUAGCUAGUCUUUAAACCAAUAGAUUGCAUCGGUUUAAAAGGCAAGACCGUCAAAUUGCGGGAAAGGGGUCAACAGCCGUUCAGUACCAAGUCUCAGGGGAAACUUUGAGAUGGCCUUGCAAAGGGUAUGGUAAUAAGCUGACGGACAUGGUCCUAACCACGCAGCCAAGUCCUAAGUCAACAGAUCUUCUGUUGAUAUGGAUGCAGUUCACAGACUAAAUGUCGGUCGGGGAAGAUGUAUUCUUCUCAUAAGAUAUAGUCGGACCUCUCCUUAAUGGGAGCUAGCGGAUGAAGUGAUGCAACACUGGAGCCGCUGGGAACUAAUUUGUAUGCGAAAGUAUAUUGAUUAGUUUUGGAGUACUCGUGGUCG
Procedure, shortened: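 Library with all eight P1ex-region intron nucleotides randomised, intron inside the knt kanamycin-resistance gene on pET-22b(+), in E. coli BL21(DE3). Cells grew overnight at 37°C or 30°C on LB agar with or without 25 μg/mL kanamycin (plus 100 μg/mL carbenicillin, 50 μM IPTG, 0.2% rhamnose), in six replicate transformations. Pooled colonies were amplicon-sequenced on Illumina HiSeq 2500. DiMSum fitness is the error-weighted combination of wild-type-normalised replicate fold changes, kanamycin versus none.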

Row | Sequence | self-splicing fitness (ln) (30 °C) | self-splicing fitness (ln) (37 °C)
1 | AACUAGCAAUAUUACGUCGA | -0.769 ± 0.087 | -0.975 ± 0.09
2 | AACUAGCAAUAUUACGUGAA | -1.86 ± 0.081 | -1.51 ± 0.11
3 | AACUAGCAAUAUUACGUUUC | -3.35 ± 0.18 | -2.58 ± 0.25
4 | AAGAAGCAAUAUUACGAAGA | -3.29 ± 0.19 | -2.15 ± 0.19
5 | AAGAAGCAAUAUUACGAAGU | -2.48 ± 0.16 | -2.12 ± 0.21
6 | AAGAAGCAAUAUUACGAGGU | -3.38 ± 0.33 | -2.42 ± 0.42
7 | AAGAAGCAAUAUUACGAUCG | -1.23 ± 0.12 | -0.674 ± 0.14
8 | AAGAAGCAAUAUUACGCAAG | -2.01 ± 0.13 | -1.15 ± 0.13
9 | AAGAAGCAAUAUUACGCCAC | – | -2.7 ± 0.48
10 | AAGAAGCAAUAUUACGCGUC | -2.48 ± 0.27 | -1.21 ± 0.3
11 | AAGAAGCAAUAUUACGCUAC | -2.18 ± 0.24 | -1.93 ± 0.44
12 | AAGAAGCAAUAUUACGGACG | -0.677 ± 0.071 | 0.0583 ± 0.11
13 | AAGAAGCAAUAUUACGGCGC | -0.183 ± 0.19 | -0.28 ± 0.25
14 | AAGAAGCAAUAUUACGGGAG | -2.62 ± 0.12 | -1.47 ± 0.11
15 | AAGAAGCAAUAUUACGUAGU | -2.52 ± 0.16 | -1.14 ± 0.15
16 | AAGAAGCAAUAUUACGUAUC | -2.31 ± 0.16 | -0.892 ± 0.18
17 | AAGAAGCAAUAUUACGUCCA | -0.641 ± 0.13 | 0.0432 ± 0.14
18 | AAGAAGCAAUAUUACGUCGC | -3.47 ± 0.19 | -2.2 ± 0.16
19 | AAGAAGCAAUAUUACGUGAG | -1.35 ± 0.046 | -0.828 ± 0.075
20 | AAGAAGCAAUAUUACGUGUC | -3.38 ± 0.15 | -2.09 ± 0.17
21 | AAGAAGCAAUAUUACGUGUU | -2.15 ± 0.13 | -1.61 ± 0.13
22 | AAGAAGCAAUAUUACGUUGC | -4.64 ± 0.31 | -3.65 ± 0.32
23 | AAGAAGCAAUAUUACGUUUU | -3.3 ± 0.11 | -1.33 ± 0.091
24 | AAGCAGCAAUAUUACGAACC | -2.26 ± 0.14 | -0.526 ± 0.15
25 | AAGCAGCAAUAUUACGACGG | -2.19 ± 0.088 | -1.17 ± 0.09

Row | Sequence | self-splicing fitness (ln) (30 °C) | self-splicing fitness (ln) (37 °C)
26 | AAGCAGCAAUAUUACGACUG | -2.67 ± 0.12 | -1.8 ± 0.14
27 | AAGCAGCAAUAUUACGAUCC | -1.73 ± 0.24 | 0.0481 ± 0.24
28 | AAGCAGCAAUAUUACGCACU | 0.0285 ± 0.094 | 0.781 ± 0.12
29 | AAGCAGCAAUAUUACGCAGG | -2.34 ± 0.14 | -1.13 ± 0.11
30 | AAGCAGCAAUAUUACGCCAU | -2.13 ± 0.19 | -1.69 ± 0.28
31 | AAGCAGCAAUAUUACGCCCG | -0.844 ± 0.21 | 1.38 ± 0.32
32 | AAGCAGCAAUAUUACGCCUA | 0.0257 ± 0.11 | -0.183 ± 0.13
33 | AAGCAGCAAUAUUACGCUAC | -2.96 ± 0.24 | -2.31 ± 0.24
34 | AAGCAGCAAUAUUACGCUAU | -2.17 ± 0.14 | -0.814 ± 0.13
35 | AAGCAGCAAUAUUACGCUCU | -1.55 ± 0.098 | -0.549 ± 0.11
36 | AAGCAGCAAUAUUACGCUGA | -3.07 ± 0.11 | -1.98 ± 0.11
37 | AAGCAGCAAUAUUACGCUUA | -1.9 ± 0.15 | -1.24 ± 0.14
38 | AAGCAGCAAUAUUACGCUUU | -4.53 ± 0.2 | -2.87 ± 0.22
39 | AAGCAGCAAUAUUACGGAUC | -1.81 ± 0.093 | -1 ± 0.1
40 | AAGCAGCAAUAUUACGGAUU | -0.723 ± 0.055 | -0.000157 ± 0.077
41 | AAGCAGCAAUAUUACGGUUC | -2.24 ± 0.097 | -2.02 ± 0.12
42 | AAGCAGCAAUAUUACGUAAG | -1.49 ± 0.074 | -1.02 ± 0.088
43 | AAGCAGCAAUAUUACGUCAG | -3.06 ± 0.2 | -2.43 ± 0.23
44 | AAGCAGCAAUAUUACGUGAC | -3.33 ± 0.14 | -2.38 ± 0.18
45 | AAGCAGCAAUAUUACGUGGA | -3.63 ± 0.21 | -1.44 ± 0.11
46 | AAGCAGCAAUAUUACGUGUG | -2.67 ± 0.083 | -1.92 ± 0.11
47 | AAGGAGCAAUAUUACGAACU | -1.63 ± 0.15 | 0.581 ± 0.21
48 | AAGGAGCAAUAUUACGAGUC | -3.2 ± 0.47 | -2.05 ± 0.23
49 | AAGGAGCAAUAUUACGAUUU | -0.545 ± 0.12 | 0.0878 ± 0.15
50 | AAGGAGCAAUAUUACGCCAA | -4.19 ± 0.46 | -3.11 ± 0.3

Row | Sequence | self-splicing fitness (ln) (30 °C) | self-splicing fitness (ln) (37 °C)
51 | AAGGAGCAAUAUUACGCGUA | -3.11 ± 0.28 | -1.29 ± 0.17
52 | AAGGAGCAAUAUUACGCUCU | -3.15 ± 0.18 | -3.85 ± 0.42
53 | AAGGAGCAAUAUUACGCUUC | – | -1.88 ± 0.39
54 | AAGGAGCAAUAUUACGGACC | -2.55 ± 0.17 | -2.97 ± 0.33
55 | AAGGAGCAAUAUUACGGAUA | -3.9 ± 0.35 | -1.99 ± 0.29
56 | AAGGAGCAAUAUUACGGCGG | -4.57 ± 0.3 | -2.12 ± 0.32
57 | AAGGAGCAAUAUUACGGCUU | -2.58 ± 0.25 | -1.64 ± 0.28
58 | AAGGAGCAAUAUUACGUAUA | -2.76 ± 0.21 | -2.85 ± 0.29
59 | AAGGAGCAAUAUUACGUCAC | – | -1.45 ± 0.46
60 | AAGGAGCAAUAUUACGUCCG | -1.79 ± 0.2 | -1.03 ± 0.28
61 | AAGGAGCAAUAUUACGUGUA | – | -2.29 ± 0.27
62 | AAGGAGCAAUAUUACGUUAA | -3.12 ± 0.25 | -1.69 ± 0.19
63 | AAGGAGCAAUAUUACGUUUC | -3.26 ± 0.43 | -2.26 ± 0.43
64 | AAGUAGCAAUAUUACGAAAG | -2.94 ± 0.27 | -2.17 ± 0.25
65 | AAGUAGCAAUAUUACGAACU | -0.525 ± 0.1 | 0.139 ± 0.12
66 | AAGUAGCAAUAUUACGAGUC | -2.53 ± 0.18 | -2.47 ± 0.3
67 | AAGUAGCAAUAUUACGAGUG | -3.16 ± 0.18 | -2.03 ± 0.19
68 | AAGUAGCAAUAUUACGAUAC | -3.92 ± 0.28 | -1.71 ± 0.25
69 | AAGUAGCAAUAUUACGCACC | -1.16 ± 0.12 | -0.367 ± 0.2
70 | AAGUAGCAAUAUUACGCAUU | -2.16 ± 0.14 | -0.921 ± 0.14
71 | AAGUAGCAAUAUUACGCCAA | -2.53 ± 0.24 | -1.55 ± 0.23
72 | AAGUAGCAAUAUUACGGCGA | -0.41 ± 0.11 | -0.0374 ± 0.11
73 | AAGUAGCAAUAUUACGGGUG | -3.43 ± 0.17 | -1.14 ± 0.12
74 | AAGUAGCAAUAUUACGGUGC | – | -2.76 ± 0.32
75 | AAGUAGCAAUAUUACGUAAC | -1.51 ± 0.13 | -2.24 ± 0.24

Row | Sequence | self-splicing fitness (ln) (30 °C) | self-splicing fitness (ln) (37 °C)
76 | AAGUAGCAAUAUUACGUAGU | -3.59 ± 0.19 | -2.32 ± 0.21
77 | AAGUAGCAAUAUUACGUGAA | -2.36 ± 0.12 | -1.78 ± 0.13
78 | AAGUAGCAAUAUUACGUGUC | -2.83 ± 0.27 | -2.4 ± 0.28
79 | AAUAAGCAAUAUUACGAAUG | -1.37 ± 0.13 | -0.759 ± 0.17
80 | AAUAAGCAAUAUUACGACCG | -0.621 ± 0.12 | 0.329 ± 0.16
81 | AAUAAGCAAUAUUACGAGAG | -2.47 ± 0.14 | -2.01 ± 0.2
82 | AAUAAGCAAUAUUACGAGGC | – | -2.31 ± 0.32
83 | AAUAAGCAAUAUUACGAUGC | -2.4 ± 0.13 | -1.45 ± 0.15
84 | AAUAAGCAAUAUUACGAUUC | -2.44 ± 0.12 | -1.13 ± 0.15
85 | AAUAAGCAAUAUUACGCAAU | -1.59 ± 0.075 | -1.22 ± 0.082
86 | AAUAAGCAAUAUUACGCAUA | -1.59 ± 0.16 | -0.617 ± 0.16
87 | AAUAAGCAAUAUUACGCCCA | 0.0107 ± 0.1 | -0.447 ± 0.15
88 | AAUAAGCAAUAUUACGCUCC | -1.46 ± 0.23 | -0.799 ± 0.24
89 | AAUAAGCAAUAUUACGGAAA | -1.5 ± 0.33 | -2.03 ± 0.39
90 | AAUAAGCAAUAUUACGGAGU | -3.06 ± 0.25 | -2.13 ± 0.32
91 | AAUAAGCAAUAUUACGGGCG | -1.29 ± 0.086 | -0.752 ± 0.095
92 | AAUAAGCAAUAUUACGGUAA | -1.73 ± 0.16 | -1.03 ± 0.11
93 | AAUAAGCAAUAUUACGUACU | 0.573 ± 0.1 | -0.654 ± 0.095
94 | AAUAAGCAAUAUUACGUAUU | -3.58 ± 0.17 | -2.22 ± 0.15
95 | AAUAAGCAAUAUUACGUCCA | -0.808 ± 0.13 | -0.899 ± 0.19
96 | AAUAAGCAAUAUUACGUCCG | -1.15 ± 0.11 | -0.82 ± 0.15
97 | AAUAAGCAAUAUUACGUGCC | – | 0.782 ± 0.26
